We go through two molecules from article PMC8928829 (mAbs, 2022).

Common to all, as to conditions: both partners purified
Assay [1] has as its target recombinant SARS-CoV-2 RBD, prototype (BLI) (SARS-CoV-2, prototype (Wuhan-Hu-1), UniProt P0DTC2). The assay is described as follows: BLI.
Assay [2] deals with T1, SARS-CoV-2 RBD (prototype), construct made for crystallography (SARS-CoV-2, prototype (Wuhan-Hu-1)).
T1 construct: also called prototype SARS-CoV-2 RBD; SARS-CoV-2 RBD (319-537)
Description: crystal structure.

The target in assay [3] is SARS-CoV-2 RBD, prototype (SARS-CoV-2, prototype (Wuhan-Hu-1), UniProt P0DTC2). The assay is described as follows: BLI.

B1: NIH-CoVnb-112 (VHH)
VHH: DVQLQESGGGLVQPGGSLRLSCAASGLTLDYYAIGWFRQAPGKEREGVSCISSSDGSTYYADSVKGRFTTSRDNAKNTVYLQMNSLKPEDTAVYYCAAVPSTYYSGTYYYTCHPGGMDYWGKGTQVTVSS
Take B1: in assay [1], the equilibrium dissociation constant (Kd) was 1.59 nM and the off-rate constant (koff) is 0.000236 s⁻¹. Further, the binding result in assay [2] is “binds”.

B2: NIH-CoVnb-112 (VHH)
VHH: B1 VHH
On to B2, for which the kon in assay [3] came to 223000 M⁻¹ s⁻¹.
